Changes are numbered by the printed parent chain. Names may count otherwise.
B1: NHERF1 PDZ2-CT E353A 150-358 (protein)
chain: LRPRLCTMKKGPSGYGFNLHSDKSKPGQFIRSVDPDSPAEASGLRAQDRIVEVNGVCMEGKQHGDVVSAIRAGGDETKLLVVDRETDEFFKKCRVIPSQEHLNGPLPVPFTNGEIQKENSREALAEAALESPRPALVRSASSDTSEELNSQDSPPKQDSTAPSSTSSSDPILDFNISLAMAKERAHQKRSSKRAPQMDWSKKNALFSNL
B2: NHERF1 PDZ2-CT 150-358 (protein)
chain: B1 chain with A204E
B3: NHERF1 PDZ2-CT E353P 150-358 (protein)
chain: B1 chain with A204P
B4: NHERF1 PDZ2-CT L358D 150-358 (protein)
chain: B1 chain with A204E, L209D

Target: C-CFTR 1411-1480 (Homo sapiens, UniProt P13569)
Test: SPR

C-CFTR 1411-1480, sequence (P13569 1411-1480): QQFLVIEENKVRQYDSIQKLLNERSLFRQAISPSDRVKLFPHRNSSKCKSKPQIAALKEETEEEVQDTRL

| Binder | Kd [nM] |
| --- | --- |
| B1 | 2500 |
| B2 | 2000 |
| B3 | 480 |
| B4 | 1600 |
